{"source": "patent US7939307B2", "about": "“Deletion mutant of multi-copper oxidase and its use in dyeing” (National University Corporation Kanazawa University, priority 2005, dated 2011)", "key": {"[1]": {"experiment": "Oxidative polymerization activity for various substrates (Test Example 2)", "format": "biochemical", "conditions": "pH 5.5", "experimental": "For substrates other than catechin, lignin (derived from rice), and lignin (derived from conifer), each substrate was dissolved in DMSO, and then dissolved in an ion-exchange water, to give a 1 mM DMSO (1.0%) aqueous solution.\nFor catechin, lignin (derived from rice), and lignin (derived from conifer), each substrate was dissolved in DMSO, and then dissolved in an ion-exchange distilled water, to give a 2 mg/mL DMSO (1.0%) aqueous solution.\n(§1) For the following method, an acetate buffer solution (pH 5.5) was used as the buffer solution.\n0.88 mL of a 0.1 M buffer solution and 0.1 mL of the substrate solution were mixed in a cuvette (1.0 mL quartz cell, manufactured by SHIMADZU), 0.02 mL of an aqueous solution of mCueO (1) was added thereto, and mixed by inversion. The change in absorbance at each wavelength (measurement wavelength shown in Table 2) from 0 to 30 seconds was measured using a spectrophotometer (UV-2459, manufactured by SHIMADZU).\nFor comparison, the oxidative polymerization activity of wild-type CueO was measured in the same manner."}, "[2]": {"experiment": "Oxidative polymerization activity for representative substrates of laccase (Test Example 1)", "format": "biochemical", "conditions": "pH 5.5", "experimental": "2,6-dimethoxyphenol, p-phenylenediamine, 2,2′-azino-bis(3-ethylbenzothiazoline-6-sulfonate) (ABTS), 2-methoxyphenol, and catechol were dissolved in an ion-exchange distilled water, respectively, to each give a 50 mM aqueous solution.\n4-hydroxyindole and p-aminophenol were dissolved in dimethylsulfoxide (DMSO), respectively, to each give a 50 mM DMSO solution.\no-aminophenol was dissolved in DMSO, and then dissolved in an ion-exchange distilled water, to give a 50 mM DMSO (10%)-aqueous solution.\n1-nitroso-2-naphthol-3,6-disulfonic acid disodium (NNS) was dissolved in an ion-exchange distilled water to give a 5 mM aqueous solution.\nBilirubin was dissolved in DMSO to give a 0.5 mM DMSO solution.\nSyringaldazine was dissolved in ethanol to give a 5 mM ethanol solution.\nL-tyrosine was dissolved in a 0.1 M phosphate buffer solution (pH 6.5), to give a 1 mM solution.\nas §1\nFor the substrates other than NNS and bilirubin, 0.88 mL of a 0.1 M buffer solution and 0.1 mL of the substrate solution were mixed in a cuvette (1.5 mL UV disposable cell, […], and mixed by inversion. The change in absorbance at each wavelength (measurement wavelength shown in Table 1) from 0 to 30 seconds was measured using a spectrophotometer (UV-2459, manufactured by SHIMADZU).\nFor NNS and bilirubin, 0.96 mL of a 0.1 M buffer solution and 0.02 mL of the substrate solution were mixed in a cuvette (1.5 mL UV disposable cell, manufactured by TOP), 0.02 mL of an aqueous solution of mCueO (1) was added thereto, and mixed by inversion. The change in absorbance at each wavelength (measurement wavelength shown in Table 1) from 0 to 30 seconds was measured using a spectrophotometer (UV-2459, manufactured by SHIMADZU).\nFor comparison, the oxidative polymerization activity of an enzyme prepared by adding a histidine tag to the C-terminus of wild-type mature CueO (SEQ ID NO: 8, hereinafter, simply referred to as ‘wild-type CueO’) was measured in the same manner. […] The change in absorbance in 30 seconds which is measured in the above manner was given in terms of change in absorbance in 1 minute (same applies below)."}, "[3]": {"conditions": "substrate o-Aminophenol, 420 nm"}, "[4]": {"conditions": "substrate p-Phenylenediamine, 470 nm"}}}
{"molecule": "Wild-type CueO: enzyme prepared by adding a histidine tag to the C-terminus of wild-type mature CueO derived from Escherichia coli (protein, listed as Escherichia coli) MQRRDFLKYSVALGVASALPLWSRAVFAAERPTLPIPDLLTTDARNRIQLTIGAGQSTFGGKTATTWGYNGNLLGPAVKLQRGKAVTVDIYNQLTEETTLHWHGLEVPGEVDGGPQGIIPPGGKRSVTLNVDQPAATCWFHPHQHGKTGRQVAMGLAGLVVIEDDEILKLMLPKQWGIDDVPVIVQDKKFSADGQIDYQLDVMTAAVGWFGDTLLTNGAIYPQHAAPRGWLRLRLLNGCNARSLNFATSDNRPLYVIASDGGLLPEPVKVSELPVLMGERFEVLVEVNDNKPFDLVTLPVSQMGMAIAPFDKPHPVMRIQPIAISASGALPDTLSSLPALPSLEGLTVRKLQLSMDPMLDMMGMQMLMEKYGDQAMAGMDHSQMMGHMGHGNMNHMNHGGKFDFHHANKINGQAFDMNKPMFAAAKGQYERWVISGVGDMMLHPFHIHGTQFRILSENGKPPAAHRAGWKDTVKVEGNVSEVLVKFNHDAPKEHAYMAHCHLLEHEDTGMMLGFTV", "values": [{"measurement": "Activity (U)", "setting": "[1]; substrate 1,3-Dihydroxynaphthalene, 450 nm", "result": 2.53, "unit": "U"}, {"measurement": "Activity (U)", "setting": "[1]; substrate 1,5-Dihydroxynaphthalene, 470 nm", "result": 0.78, "unit": "U"}, {"measurement": "Activity (U)", "setting": "[1]; substrate 1-Naphthol, 405 nm", "result": 0.00, "unit": "U"}, {"measurement": "Activity (U)", "setting": "[1]; substrate 2,4-Diaminophenol dihydrochloride, 470 nm", "result": 69.83, "unit": "U"}, {"measurement": "Activity (U)", "setting": "[1]; substrate 2,5-Diaminotoluene sulfate, 470 nm", "result": 44.55, "unit": "U"}, {"measurement": "Activity (U)", "setting": "[1]; substrate 2,6-Dihydroxynaphthalene, 405 nm", "result": 0.00, "unit": "U"}, {"measurement": "Activity (U)", "setting": "[1]; substrate 2,6-Dimethoxy-4-metylphenol, 405 nm", "result": 0.00, "unit": "U"}, {"measurement": "Activity (U)", "setting": "[1]; substrate 2,6-Dimethoxyphenol, 470 nm", "result": 1.43, "unit": "U"}, {"measurement": "Activity (U)", "setting": "[1]; substrate 2-Chloro-1,4-phenylenediamine, 450 nm", "result": 3.10, "unit": "U"}, {"measurement": "Activity (U)", "setting": "[1]; substrate 2-Methoxyphenol, 450 nm", "result": 0.00, "unit": "U"}, {"measurement": "Activity (U)", "setting": "[1]; substrate 4-Hydroxyindole, 405 nm", "result": 3.33, "unit": "U"}, {"measurement": "Activity (U)", "setting": "[1]; substrate 5-Aminoorthocresol, 405 nm", "result": 0.00, "unit": "U"}, {"measurement": "Activity (U)", "setting": "[1]; substrate 5-Hydroxyindole, 405 nm", "result": 0.00, "unit": "U"}, {"measurement": "Activity (U)", "setting": "[1]; substrate Catechin, 405 nm", "result": 0.00, "unit": "U"}, {"measurement": "Activity (U)", "setting": "[1]; substrate Catechol, 405 nm", "result": 0.00, "unit": "U"}, {"measurement": "Activity (U)", "setting": "[1]; substrate Gallic acid, 405 nm", "result": 1.78, "unit": "U"}, {"measurement": "Activity (U)", "setting": "[1]; substrate Hydroquinone, 405 nm", "result": 0.00, "unit": "U"}, {"measurement": "Activity (U)", "setting": "[1]; substrate Lignin (derived from conifer), 450 nm", "result": 0.00, "unit": "U"}, {"measurement": "Activity (U)", "setting": "[1]; substrate Lignin (derived from rice), 450 nm", "result": 0.00, "unit": "U"}, {"measurement": "Activity (U)", "setting": "[1]; substrate N,N-Dimethyl-p-phenylenediamine, 470 nm", "result": 59.35, "unit": "U"}, {"measurement": "Activity (U)", "setting": "[1]; substrate Propyl gallate, 405 nm", "result": 0.00, "unit": "U"}, {"measurement": "Activity (U)", "setting": "[1]; substrate Protocatechuic acid, 405 nm", "result": 0.00, "unit": "U"}, {"measurement": "Activity (U)", "setting": "[1]; substrate Pyrogallol, 405 nm", "result": 9.44, "unit": "U"}, {"measurement": "Activity (U)", "setting": "[1]; substrate Resorcinol, 405 nm", "result": 0.00, "unit": "U"}, {"measurement": "Activity (U)", "setting": "[1]; substrate Tolylene-3,4-diamine, 470 nm", "result": 0.00, "unit": "U"}, {"measurement": "Activity (U)", "setting": "[1]; substrate Trimethylhydroquinone, 405 nm", "result": 0.00, "unit": "U"}, {"measurement": "Activity (U)", "setting": "[1]; substrate m-Aminophenol, 405 nm", "result": 0.00, "unit": "U"}, {"measurement": "Activity (U)", "setting": "[1]; substrate m-Phenylenediamine, 405 nm", "result": 0.00, "unit": "U"}, {"measurement": "Activity (U)", "setting": "[1]; [3]", "result": 14.06, "unit": "U"}, {"measurement": "Activity (U)", "setting": "[1]; substrate o-Phenylenediamine, 430 nm", "result": 0.00, "unit": "U"}, {"measurement": "Activity (U)", "setting": "[1]; substrate p-Aminodiphenylamine, 470 nm", "result": 48.86, "unit": "U"}, {"measurement": "Activity (U)", "setting": "[1]; substrate p-Aminophenol, 405 nm", "result": 3.37, "unit": "U"}, {"measurement": "Activity (U)", "setting": "[1]; substrate p-Methylaminophenol sulfate, 470 nm", "result": 6.51, "unit": "U"}, {"measurement": "Activity (U)", "setting": "[1]; [4]", "result": 19.55, "unit": "U"}, {"measurement": "Activity (U)", "setting": "[2]; substrate 2-Methoxyphenol, 470 nm", "result": 0.00, "unit": "U"}, {"measurement": "Activity (U)", "setting": "[2]; substrate ABTS, 420 nm", "result": 40.22, "unit": "U"}, {"measurement": "Activity (U)", "setting": "[2]; substrate Bilirubin, 530 nm", "result": 0.53, "unit": "U"}, {"measurement": "Activity (U)", "setting": "[2]; substrate Catechol, 400 nm", "result": 0.00, "unit": "U"}, {"measurement": "Activity (U)", "setting": "[2]; substrate L-Tyrosine, 490 nm", "result": 0.00, "unit": "U"}, {"measurement": "Activity (U)", "setting": "[2]; substrate NNS, 490 nm", "result": 0.00, "unit": "U"}, {"measurement": "Activity (U)", "setting": "[2]; substrate Syringaldazine, 530 nm", "result": 4.73, "unit": "U"}, {"measurement": "Activity (U)", "setting": "[2]; [3]", "result": 14.06, "unit": "U"}, {"measurement": "Activity (U)", "setting": "[2]; substrate p-Aminophenol, 400 nm", "result": 3.37, "unit": "U"}, {"measurement": "Activity (U)", "setting": "[2]; [4]", "result": 9.70, "unit": "U"}]}
